Experimental data published in patent publication US20260265403A1 (TJ BIOPHARMA SHANGHAI, published 2026).
Numbering of substitutions follows the chain as printed. Names may count otherwise.

T1: Human CD24 (human, UniProt P25063 27-59, limits assumed)
T1 chain (looked up): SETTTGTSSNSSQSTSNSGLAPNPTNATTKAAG

T2: human CD24 on cells (human, UniProt P25063 27-59)
T2 construct: whole, on cells; One molecule for all cell lines; the cell line is named under assay or readout; also called cell surface CD24; cell-based CD24
T2 chain (looked up): T1 chain (looked up)

B1: Antibody No 6, lead clone of 4451H (HC N35G; LC L33G) (antibody, V domains shown)
VH: QVQLVQSGAEVKKPGASVKVSCKASGYDFTGYHMGWVRQAPGQGLEWMGEINPITSDKTFNQKFKSRVTMTRDTSISTAYMELSRLRSDDTAVYYCARRDYGTSLDYWGQGTTVTVSS
VL: DIQLTQSPSFLSASVGDRVTITCRASKSISKYGAWYQQKPGKAPKLLIYAGSTLHSGIPSRFRGSGSGTEFTLTISSLQPEDFATYYCQQHNEYPITFGQGTKLEIK
B2: Antibody No 15 (4451HM15), lead clone of 4451H (HC N35G, T59Y; LC K27A) (antibody, V domains shown)
VH: B1 VH with T59Y
VL: B1 VL with K27A, G33L
B3: Antibody No 16, lead clone of 4451H (HC N35G, T59Y; LC S30K) (antibody, V domains shown)
VH: B1 VH with T59Y
VL: B1 VL with S30K, G33L
B4: Antibody No 17, lead clone of 4451H (HC N35G, T59Y; LC L33G) (antibody, V domains shown)
VH: B1 VH with T59Y
VL: B1 VL
B5: Antibody No 3, lead clone of 4451H (HC N35G; LC L33G, T97I) (antibody, V domains shown)
VH: B1 VH
VL: B1 VL with T97I
B6: VH + VL (4451 parental variable regions, Table 7) (antibody, V domains shown)
VH: EVQLQQSGPELVKPGASVKISCKASGYDFTGYHMNWVKQSPEKSLEWIGEINPITSDKTFNQKFKSKATLTVDRSSSTAYMYLKSLTSEDSAVYYCARRDYGTSLDYWGQGTTLTVSS
VL: DVQITQSPSYLAASPGETITIYCRASKSISKYLAWYQEKPEKTNRLLIYAGSTLHSGIPSRFRGSGSGKDFTLTVSGLEPEDFAMYYCQQHNEYPITFGAGTKLELK
B7: VH3 + VL1 (humanized 4451) (antibody, V domains shown)
VH: B1 VH with G35N, M48I, V68A, R72V
VL: B1 VL with G33L, I58V, R63S
notes: IgG expressed in HEK293
B8: VH1 + VL2 (humanized 4451) (antibody, V domains shown)
VH: B1 VH with G35N
VL: B1 VL with G33L, K45R, I58V
notes: IgG expressed in HEK293
B9: VH3 + VL2 (humanized 4451) (antibody, V domains shown)
VH: B1 VH with G35N, M48I, V68A, R72V
VL: B1 VL with G33L, K45R, I58V
notes: IgG expressed in HEK293
B10: VH2 + VL3 (humanized 4451) (antibody, V domains shown)
VH: B1 VH with G35N, M48I, R72V
VL: B1 VL with G33L
notes: IgG expressed in HEK293
B11: VH1 + VL1 (humanized 4451) (antibody, V domains shown)
VH: B1 VH with G35N
VL: B1 VL with G33L, I58V, R63S
notes: IgG expressed in HEK293
B12: VH3 + VL4 (humanized 4451) (antibody, V domains shown)
VH: B1 VH with G35N, M48I, V68A, R72V
VL: B1 VL with T22Y, G33L, K45R
notes: IgG expressed in HEK293
B13: VH1 + VL4 (humanized 4451) (antibody, V domains shown)
VH: B1 VH with G35N
VL: B1 VL with T22Y, G33L, K45R
notes: IgG expressed in HEK293
B14: VH3 + VL3 (humanized 4451) (antibody, V domains shown)
VH: B1 VH with G35N, M48I, V68A, R72V
VL: B1 VL with G33L
notes: IgG expressed in HEK293
B15: VH2 + VL1 (humanized 4451) (antibody, V domains shown)
VH: B1 VH with G35N, M48I, R72V
VL: B1 VL with G33L, I58V, R63S
notes: IgG expressed in HEK293
B16: Antibody No 1, lead clone of 4451H (HC N35G; LC K27A, T97I) (antibody, V domains shown)
VH: B1 VH
VL: B1 VL with K27A, G33L, T97I
B17: Antibody No 10, lead clone of 4451H (HC T59Y; LC L33G, T97I) (antibody, V domains shown)
VH: B1 VH with G35N, T59Y
VL: B1 VL with T97I
B18: Antibody No 9, lead clone of 4451H (HC T59Y; LC S30K, T97I) (antibody, V domains shown)
VH: B1 VH with G35N, T59Y
VL: B1 VL with S30K, G33L, T97I
B19: Antibody No 13, lead clone of 4451H (HC T59Y; LC L33G) (antibody, V domains shown)
VH: B1 VH with G35N, T59Y
VL: B1 VL
B20: Antibody No 12, lead clone of 4451H (HC T59Y; LC S30K) (antibody, V domains shown)
VH: B1 VH with G35N, T59Y
VL: B1 VL with S30K, G33L
B21: Antibody No 5, lead clone of 4451H (HC N35G; LC S30K) (antibody, V domains shown)
VH: B1 VH
VL: B1 VL with S30K, G33L
B22: Antibody No 8, lead clone of 4451H (HC T59Y; LC K27A, T97I) (antibody, V domains shown)
VH: B1 VH with G35N, T59Y
VL: B1 VL with K27A, G33L, T97I
B23: Antibody No 2, lead clone of 4451H (HC N35G; LC S30K, T97I) (antibody, V domains shown)
VH: B1 VH
VL: B1 VL with S30K, G33L, T97I
B24: Antibody No 11, lead clone of 4451H (HC T59Y; LC K27A) (antibody, V domains shown)
VH: B1 VH with G35N, T59Y
VL: B1 VL with K27A, G33L
B25: Antibody No 4, lead clone of 4451H (HC N35G; LC K27A) (antibody, V domains shown)
VH: B1 VH
VL: B1 VL with K27A, G33L
B26: Antibody No 18, lead clone of 4451H (HC N35G, T59Y; LC T97I) (antibody, V domains shown)
VH: B1 VH with T59Y
VL: B1 VL with G33L, T97I
B27: Antibody No 7, lead clone of 4451H (HC N35G; LC T97I) (antibody, V domains shown)
VH: B1 VH
VL: B1 VL with G33L, T97I
B28: Antibody No 14, lead clone of 4451H (HC T59Y; LC T97I) (antibody, V domains shown)
VH: B1 VH with G35N, T59Y
VL: B1 VL with G33L, T97I
B29: VH2 + VL4 (humanized 4451) (antibody, V domains shown)
VH: B1 VH with G35N, M48I, R72V
VL: B1 VL with T22Y, G33L, K45R
notes: IgG expressed in HEK293
B30: VH2 + VL2 (humanized 4451) (antibody, V domains shown)
VH: B1 VH with G35N, M48I, R72V
VL: B1 VL with G33L, K45R, I58V
notes: IgG expressed in HEK293
B31: VH4 + VL4 (humanized 4451) (antibody, V domains shown)
VH: B1 VH with G35N, R38K, M48I, V68A, R72V, T74R
VL: B1 VL with T22Y, G33L, K45R
notes: IgG expressed in HEK293

Biological target: T1, Human CD24
Experiment: SPR, second 1:1 binding column set

Row | Kd [nM] | koff [s⁻¹] | kon [M⁻¹ s⁻¹] | Binder
1 | 3.86 | 0.00763 | 1.98e+06 | B1
2 | 3.98 | 0.00509 | 1.28e+06 | B2
3 | 6.99 | 0.00808 | 1.16e+06 | B3
4 | 3.41 | 0.00419 | 1.23e+06 | B4
5 | 4.6 | 0.00766 | 1.66e+06 | B5

Biological target: T2, human CD24 on cells
Experiment: flow cytometry (GMFI), SKOV3 cells; EC50 table under the graphs [Cont'd) B]

Row | EC50 [µg/mL] | Binder
6 | 0.43 | B6
7 | 0.42 | B7
8 | 0.38 | B8
9 | 0.52 | B9
10 | 0.42 | B10
11 | 0.45 | B11
12 | 0.42 | B12
13 | 0.43 | B13
14 | 0.42 | B14
15 | 0.45 | B15

Biological target: T1, Human CD24
Experiment: SPR affinity ranking, 1:1 binding, analyte conc. 19.71 nM

Row | Kd [nM] | koff [s⁻¹] | kon [M⁻¹ s⁻¹] | Binder
16 | 10.5 | 0.0132 | 1.26e+06 | B16
17 | 8.7 | 0.0175 | 2.01e+06 | B17
18 | 11.4 | 0.06 | 5.27e+06 | B18
19 | 5.11 | 0.00796 | 1.56e+06 | B1
20 | 9.68 | 0.0237 | 2.45e+06 | B19
21 | 7.05 | 0.00755 | 1.07e+06 | B2
22 | 11.1 | 0.168 | 1.52e+07 | B20
23 | 7.51 | 0.016 | 2.13e+06 | B3
24 | 7.89 | 0.0345 | 4.37e+06 | B21
25 | 15.8 | 0.0196 | 1.24e+06 | B22
26 | 4.42 | 0.0069 | 1.56e+06 | B4
27 | 8.78 | 0.0249 | 2.83e+06 | B23
28 | 14.1 | 0.0171 | 1.21e+06 | B24
29 | 8.97 | 0.0107 | 1.19e+06 | B25
30 | 8.83 | 0.015 | 1.7e+06 | B26
31 | 7.09 | 0.00827 | 1.17e+06 | B5
32 | 16.9 | 0.0141 | 836000 | B27
33 | 8.3 | 0.0604 | 7.28e+06 | B28

Biological target: T1, Human CD24
Experiment: affinity ranking; antibody as ligand, Human CD24 as analyte

Row | Kd [nM] | koff [s⁻¹] | kon [M⁻¹ s⁻¹] | Binder
34 | 3.23 | 0.00937 | 2.9e+06 | B6
35 | 26 | 0.0294 | 1.13e+06 | B7
36 | 19.7 | 0.0229 | 1.16e+06 | B29
37 | 13.8 | 0.0239 | 1.74e+06 | B8
38 | 23.7 | 0.0262 | 1.1e+06 | B9
39 | 19.4 | 0.023 | 1.18e+06 | B10
40 | 17.6 | 0.0169 | 958000 | B11
41 | 22 | 0.0234 | 1.06e+06 | B30
42 | 24.8 | 0.0163 | 655000 | B12
43 | 15 | 0.0241 | 1.61e+06 | B13
44 | 23.8 | 0.027 | 1.13e+06 | B14
45 | 7.94 | 0.0122 | 1.53e+06 | B31
46 | 20.9 | 0.0264 | 1.26e+06 | B15

Biological target: T2, human CD24 on cells
Experiment: flow cytometry (GMFI), MCF-7 cells; EC50 table under the graphs

Row | EC50 [µg/mL] | Binder
47 | 0.4 | B6
48 | 0.42 | B7
49 | 0.4 | B8
50 | 0.52 | B9
51 | 0.42 | B10
52 | 0.43 | B11
53 | 0.75 | B30
54 | 0.41 | B12
55 | 0.4 | B13
56 | 0.42 | B14
57 | 0.39 | B31
58 | 0.45 | B15
